Data as given in PMC8298264, “Function of cofactor Akirin2 in the regulation of gene expression in model human neutrophil-like HL60 cells” (Bioscience Reports, 2021).

System: human HL60 cells
Test: SWATH-MS proteomics, differential protein representation, akirin2 KO vs WT HL60 cells
Type: cell-based
Conditions: SWATH-MS, akirin2 KO vs WT HL60 cells; sheet "Under-represented in KO"
How it was run: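 Proteins from WT and akirin2 KO HL60 cells (n=3 biological replicates) were FASP trypsin-digested and analyzed by SWATH-MS DIA with variable windows against an IDA-derived spectral library. Identifications at 1% global FDR; quantities normalized to total area sums of all detected proteins.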

B1: sp¦P50213¦IDH3A_HUMAN (protein, UniProt P50213 28-366, looked up)
Isocitrate dehydrogenase …: TGGVQTVTLIPGDGIGPEISAAVMKIFDAAKAPIQWEERNVTAIQGPGGKWMIPSEAKESMDKNKMGLKGPLKTPIAAGHPSMNLLLRKTFDLYANVRPCVSIEGYKTPYTDVNIVTIRENTEGEYSGIEHVIVDGVVQSIKLITEGASKRIAEFAFEYARNNHRSNVTAVHKANIMRMSDGLFLQKCREVAESCKDIKFNEMYLDTVCLNMVQDPSQFDVLVMPNLYGDILSDLCAGLIGGLGVTPSGNIGANGVAIFESVHGTAPDIAGKDMANPTALLLSAVMMLRHMGLFDHAARIEAACFATIKDGKSLTKDLGGNAKCSDFTEEICRRVKDLD
For B1, the “Fold Change” value was 0.7755 and the “Log (Fold Change)” value was -0.1104.

B2: sp¦O00160¦MYO1F_HUMAN (protein, UniProt O00160 1-1098, looked up)
Unconventional myosin-If: MGSKERFHWQSHNVKQSGVDDMVLLPQITEDAIAANLRKRFMDDYIFTYIGSVLISVNPFKQMPYFTDREIDLYQGAAQYENPPHIYALTDNMYRNMLIDCENQCVIISGESGAGKTVAAKYIMGYISKVSGGGEKVQHVKDIILQSNPLLEAFGNAKTVRNNNSSRFGKYFEIQFSRGGEPDGGKISNFLLEKSRVVMQNENERNFHIYYQLLEGASQEQRQNLGLMTPDYYYYLNQSDTYQVDGTDDRSDFGETLSAMQVIGIPPSIQQLVLQLVAGILHLGNISFCEDGNYARVESVDLLAFPAYLLGIDSGRLQEKLTSRKMDSRWGGRSESINVTLNVEQAAYTRDALAKGLYARLFDFLVEAINRAMQKPQEEYSIGVLDIYGFEIFQKNGFEQFCINFVNEKLQQIFIELTLKAEQEEYVQEGIRWTPIQYFNNKVVCDLIENKLSPPGIMSVLDDVCATMHATGGGADQTLLQKLQAAVGTHEHFNSWSAGFVIHHYAGKVSYDVSGFCERNRDVLFSDLIELMQTSEQAFLRMLFPEKLDGDKKGRPSTAGSKIKKQANDLVATLMRCTPHYIRCIKPNETKRPRDWEENRVKHQVEYLGLKENIRVRRAGFAYRRQFAKFLQRYAILTPETWPRWRGDERQGVQHLLRAVNMEPDQYQMGSTKVFVKNPESLFLLEEVRERKFDGFARTIQKAWRRHVAVRKYEEMREEASNILLNKKERRRNSINRNFVGDYLGLEERPELRQFLGKRERVDFADSVTKYDRRFKPIKRDLILTPKCVYVIGREKVKKGPEKGQVCEVLKKKVDIQALRGVSLSTRQDDFFILQEDAADSFLESVFKTEFVSLLCKRFEEATRRPLPLTFSDTLQFRVKKEGWGGGGTRSVTFSRGFGDLAVLKVGGRTLTVSVGDGLPKSSKPTRKGMAKGKPRRSSQAPTRAAPAPPRGMDRNGVPPSARGGPLPLEIMSGGGTHRPPRGPPSTSLGASRRPRARPPSEHNTEFLNVPDQGMAGMQRKRSVGQRPVPGVGRPKPQPRTHGPRCRALYQYVGQDVDELSFNVNEVIEILMEDPSGWWKGRLHGQEGLFPGNYVEKI
With B2 the “Fold Change” value was 0.7701 and the “Log (Fold Change)” value was -0.1134.

B3: sp¦P26639¦SYTC_HUMAN (protein, UniProt P26639 1-723, looked up)
Threonine--tRNA ligase 1, …: MFEEKASSPSGKMGGEEKPIGAGEEKQKEGGKKKNKEGSGDGGRAELNPWPEYIYTRLEMYNILKAEHDSILAEKAEKDSKPIKVTLPDGKQVDAESWKTTPYQIACGISQGLADNTVIAKVNNVVWDLDRPLEEDCTLELLKFEDEEAQAVYWHSSAHIMGEAMERVYGGCLCYGPPIENGFYYDMYLEEGGVSSNDFSSLEALCKKIIKEKQAFERLEVKKETLLAMFKYNKFKCRILNEKVNTPTTTVYRCGPLIDLCRGPHVRHTGKIKALKIHKNSSTYWEGKADMETLQRIYGISFPDPKMLKEWEKFQEEAKNRDHRKIGRDQELYFFHELSPGSCFFLPKGAYIYNALIEFIRSEYRKRGFQEVVTPNIFNSRLWMTSGHWQHYSENMFSFEVEKELFALKPMNCPGHCLMFDHRPRSWRELPLRLADFGVLHRNELSGALTGLTRVRRFQQDDAHIFCAMEQIEDEIKGCLDFLRTVYSVFGFSFKLNLSTRPEKFLGDIEVWDQAEKQLENSLNEFGEKWELNSGDGAFYGPKIDIQIKDAIGRYHQCATIQLDFQLPIRFNLTYVSHDGDDKKRPVIVHRAILGSVERMIAILTENYGGKWPFWLSPRQVMVVPVGPTCDEYAQKVRQQFHDAKFMADIDLDPGCTLNKKIRNAQLAQYNFILVVGEKEKISGTVNIRTRDNKVHGERTISETIERLQQLKEFRSKQAEEEF
With B3 the “Fold Change” value was 0.7727 and the “Log (Fold Change)” value was -0.112.

B4: sp¦O60832¦DKC1_HUMAN (protein, UniProt O60832 2-514, looked up)
H/ACA ribonucleoprotein …: ADAEVIILPKKHKKKKERKSLPEEDVAEIQHAEEFLIKPESKVAKLDTSQWPLLLKNFDKLNVRTTHYTPLACGSNPLKREIGDYIRTGFINLDKPSNPSSHEVVAWIRRILRVEKTGHSGTLDPKVTGCLIVCIERATRLVKSQQSAGKEYVGIVRLHNAIEGGTQLSRALETLTGALFQRPPLIAAVKRQLRVRTIYESKMIEYDPERRLGIFWVSCEAGTYIRTLCVHLGLLLGVGGQMQELRRVRSGVMSEKDHMVTMHDVLDAQWLYDNHKDESYLRRVVYPLEKLLTSHKRLVMKDSAVNAICYGAKIMLPGVLRYEDGIEVNQEIVVITTKGEAICMAIALMTTAVISTCDHGIVAKIKRVIMERDTYPRKWGLGPKASQKKLMIKQGLLDKHGKPTDSTPATWKQEYVDYSESAKKEVVAEVVKAPQVVAEAAKTAKRKRESESESDETPPAAPQLIKKEKKKSKKDKKAKAGLESGAEPGDGDSDTTKKKKKKKKAKEVELVSE
For B4, the “Fold Change” value was 0.774 and the “Log (Fold Change)” value was -0.1113.

B5: sp¦Q12931¦TRAP1_HUMAN (protein, UniProt Q12931 60-704, looked up)
Heat shock protein 75 kDa, …: STQTAEDKEEPLHSIISSTESVQGSTSKHEFQAETKKLLDIVARSLYSEKEVFIRELISNASDALEKLRHKLVSDGQALPEMEIHLQTNAEKGTITIQDTGIGMTQEELVSNLGTIARSGSKAFLDALQNQAEASSKIIGQFGVGFYSAFMVADRVEVYSRSAAPGSLGYQWLSDGSGVFEIAEASGVRTGTKIIIHLKSDCKEFSSEARVRDVVTKYSNFVSFPLYLNGRRMNTLQAIWMMDPKDVREWQHEEFYRYVAQAHDKPRYTLHYKTDAPLNIRSIFYVPDMKPSMFDVSRELGSSVALYSRKVLIQTKATDILPKWLRFIRGVVDSEDIPLNLSRELLQESALIRKLRDVLQQRLIKFFIDQSKKDAEKYAKFFEDYGLFMREGIVTATEQEVKEDIAKLLRYESSALPSGQLTSLSEYASRMRAGTRNIYYLCAPNRHLAEHSPYYEAMKKKDTEVLFCFEQFDELTLLHLREFDKKKLISVETDIVVDHYKEEKFEDRSPAAECLSEKETEELMAWMRNVLGSRVTNVKVTLRLDTHPAMVTVLEMGAARHFLRMQQLAKTQEERAQLLQPTLEINPRHALIKKLNQLRASEPGLAQLLVDQIYENAMIAAGLVDDPRAMVGRLNELLVKALERH
For B5, the “Fold Change” value was 0.7682 and the “Log (Fold Change)” value was -0.1145.

B6: sp¦P22087¦FBRL_HUMAN (protein, UniProt P22087 1-321, looked up)
rRNA 2'-O-methyltransferase …: MKPGFSPRGGGFGGRGGFGDRGGRGGRGGFGGGRGRGGGFRGRGRGGGGGGGGGGGGGRGGGGFHSGGNRGRGRGGKRGNQSGKNVMVEPHRHEGVFICRGKEDALVTKNLVPGESVYGEKRVSISEGDDKIEYRAWNPFRSKLAAAILGGVDQIHIKPGAKVLYLGAASGTTVSHVSDIVGPDGLVYAVEFSHRSGRDLINLAKKRTNIIPVIEDARHPHKYRMLIAMVDVIFADVAQPDQTRIVALNAHTFLRNGGHFVISIKANCIDSTASAEAVFASEVKKMQQENMKPQEQLTLEPYERDHAVVVGVYRPPPKVKN
B6 was tested, and the “Fold Change” value was 0.7688 and the “Log (Fold Change)” value was -0.1142.

B7: sp¦Q9BVP2¦GNL3_HUMAN (protein, UniProt Q9BVP2 1-549, looked up)
Guanine nucleotide-binding …: MKRPKLKKASKRMTCHKRYKIQKKVREHHRKLRKEAKKRGHKKPRKDPGVPNSAPFKEALLREAELRKQRLEELKQQQKLDRQKELEKKRKLETNPDIKPSNVEPMEKEFGLCKTENKAKSGKQNSKKLYCQELKKVIEASDVVLEVLDARDPLGCRCPQVEEAIVQSGQKKLVLILNKSDLVPKENLESWLNYLKKELPTVVFRASTKPKDKGKITKRVKAKKNAAPFRSEVCFGKEGLWKLLGGFQETCSKAIRVGVIGFPNVGKSSIINSLKQEQMCNVGVSMGLTRSMQVVPLDKQITIIDSPSFIVSPLNSSSALALRSPASIEVVKPMEAASAILSQADARQVVLKYTVPGYRNSLEFFTVLAQRRGMHQKGGIPNVEGAAKLLWSEWTGASLAYYCHPPTSWTPPPYFNESIVVDMKSGFNLEELEKNNAQSIRAIKGPHLANSILFQSSGLTNGIIEEKDIHEELPKRKERKQEEREDDKDSDQETVDEEVDENSSGMFAAEETGEALSEETTAGEQSTRSFILDKIIEEDDAYDFSTDYV
For B7, the “Fold Change” value was 0.7833 and the “Log (Fold Change)” value was -0.1061.

B8: sp¦Q9NPJ3¦ACO13_HUMAN (protein, UniProt Q9NPJ3 1-140, looked up)
Acyl-coenzyme A thioesterase …: MTSMTQSLREVIKAMTKARNFERVLGKITLVSAAPGKVICEMKVEEEHTNAIGTLHGGLTATLVDNISTMALLCTERGAPGVSVDMNITYMSPAKLGEDIVITAHVLKQGKTLAFTSVDLTNKATGKLIAQGRHTKHLGN
In the case of B8, the “Fold Change” value is reported as 0.7707 and the “Log (Fold Change)” value is reported as -0.1131.

B9: sp¦P54687¦BCAT1_HUMAN (protein, UniProt P54687 1-386, looked up)
Branched-chain-amino-acid …: MKDCSNGCSAECTGEGGSKEVVGTFKAKDLIVTPATILKEKPDPNNLVFGTVFTDHMLTVEWSSEFGWEKPHIKPLQNLSLHPGSSALHYAVELFEGLKAFRGVDNKIRLFQPNLNMDRMYRSAVRATLPVFDKEELLECIQQLVKLDQEWVPYSTSASLYIRPTFIGTEPSLGVKKPTKALLFVLLSPVGPYFSSGTFNPVSLWANPKYVRAWKGGTGDCKMGGNYGSSLFAQCEAVDNGCQQVLWLYGEDHQITEVGTMNLFLYWINEDGEEELATPPLDGIILPGVTRRCILDLAHQWGEFKVSERYLTMDDLTTALEGNRVREMFGSGTACVVCPVSDILYKGETIHIPTMENGPKLASRILSKLTDIQYGREESDWTIVLS
In the case of B9, the “Fold Change” value is reported as 0.7726 and the “Log (Fold Change)” value is reported as -0.112.
